Our source for the thrombin generation assay, FXI-depleted plasma with tissue factor: time to peak thrombin, Kd and Ki values is US20170321218A1, “FACTOR XIA-SPECIFIC APTAMERS” (CANADIAN BLOOD SERVICES, published 2017).

A word on the Kd: it is the free concentration of one partner at which half of the binding sites on the other are occupied at equilibrium, for simple one-to-one binding. For orientation: Ki means the dissociation constant of the complex between target and ligand, obtained from inhibition or displacement.

One series deals with thrombin (UniProt P00734). Nature of the series: cell-based or functional assay.
The target in series [1] is T1, Factor XIa (FXIa) (UniProt P03951;P03951 P03951:19-387,P03951:388-625). Nature of the series: SPR; ±0.1 nM; ka 5.2e4 M-1s-1, kd 9.5e-5 s-1; 100 mM HEPES pH 7.4, 150 mM NaCl, 0.01% Tween 20, 25 C; SCRAPT reference cell subtracted. The note with it: chain copies: 2,2; label: 3'-biotin; predicted stem-loop hairpin with bulge and two small loops. As to the method: Kinetic measurements of aptamer binding were analyzed by SPR on a Biacore T200 (GE Healthcare). To immobilize the aptamer, a CM5 sensor chip (GE Healthcare) was activated with a 0.2 M N-ethyl-N′-(dimethylamino-propyl) carbodiimide (EDC) and 0.05 M N-hydroxysuccinimide (NHS) (Sigma) solution, followed by binding of streptavidin (0.2 mg/ml, pH 4.5). FELIAP and SCRAPT (3′ biotinylated) in 100 mM HEPES (pH 7.4), 150 mM NaCl, 0.01% Tween 20 were immobilized on the streptavidin-coated chips at a flow rate of 10 μL/min to 100 response units (RU). Flow cells were regenerated with 0.2% SDS (w/vol). FXIa at concentrations varying from 15.671 nM to 500 nM was injected at a flow rate of 50 μl/min for 180 s to monitor association, and HEPES buffer for 1800 s to monitor dissociation. The signal from the SCRAPT-immobilized flow cell was used as a reference and subtracted from the signal arising from FXIa binding to the FELIAP-immobilized cell. Binding of FXIa and aptamer was quantified by global analysis of on and off rates using the Langmuir 1:1 binding model, as determined with the instrument's software provided by the manufacturer (Biacore). All experiments were done in triplicate.
T1 sequence (P03951 19-387, chain 1 of 2): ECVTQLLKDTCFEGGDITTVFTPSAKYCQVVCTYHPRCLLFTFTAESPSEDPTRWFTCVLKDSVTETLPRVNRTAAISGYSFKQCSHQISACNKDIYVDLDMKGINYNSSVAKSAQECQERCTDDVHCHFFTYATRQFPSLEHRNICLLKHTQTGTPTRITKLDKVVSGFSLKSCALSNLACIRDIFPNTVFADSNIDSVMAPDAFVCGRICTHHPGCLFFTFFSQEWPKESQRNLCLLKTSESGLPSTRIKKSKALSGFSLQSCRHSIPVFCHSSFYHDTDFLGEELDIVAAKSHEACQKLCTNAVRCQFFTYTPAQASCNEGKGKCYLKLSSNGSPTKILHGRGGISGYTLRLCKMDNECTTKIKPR
T1 sequence (P03951 388-625, chain 2 of 2): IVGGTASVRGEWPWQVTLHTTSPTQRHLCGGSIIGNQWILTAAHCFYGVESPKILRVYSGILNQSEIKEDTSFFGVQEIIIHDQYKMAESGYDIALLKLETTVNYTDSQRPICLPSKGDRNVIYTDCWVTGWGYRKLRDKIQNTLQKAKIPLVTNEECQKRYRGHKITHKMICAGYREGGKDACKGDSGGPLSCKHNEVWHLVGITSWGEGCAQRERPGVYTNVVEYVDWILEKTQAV

Series [2] has as its target T1, Factor XIa (FXIa). Nature of the series: inhibition; competitive inhibition of S2366 amidolysis; PPNE pH 7.4, 37 C. The note with it: chain copies: 2,2; predicted stem-loop hairpin with bulge and two small loops. As to the method: The mode of inhibition of FELIAP was investigated by fixing the concentrations of chromogenic substrate and FXIa and increasing the concentration of FELIAP and measuring the rate of substrate cleavage. A dose-dependent reduction in the reaction rate was observed as FELIAP was increased from 0 to 20 μM, while the same concentrations of SCRAPT had no inhibitory effect (FIG. 2A). Next, the concentration of chromogenic substrate S2366 was varied while keeping FXIa constant at different concentrations of FELIAP (FIG. 2B).

In the series with thrombin, “recombinant His-tagged hirudin variant 3” gave a thrombin generation assay, FXI-depleted plasma with tissue factor: time to peak thrombin of 3.1 fold.

B1: FELIAP 3'-biotin (ssDNA)
DNA: GAATTCTAATACGACTCACTATAAACCTATCGGACTATTGTTAGTGATTTTTATAGTGTGCGTCCAACACATCG
On to B1, for which the Kd with Factor XIa (FXIa) [1] is 1.8 nM.

B2: FELIAP (Apt10-10) (ssDNA)
DNA: B1 DNA
Turning to B2, in the series with Factor XIa (FXIa) [2], the inhibition constant Ki was 29 µM.
